The target of this assay is mutant membrane-bound TNFα on stably transfected CHO cells (B-220 cells) (UniProt P01375). As to the kind of experiment: FACS, anti-CD19 beads with TNFα-transfected CHO cells.

Data on one substance can be found in patent US20190382498A1.

Chain of UniProt P01375 (P01375 whole entry, change not shown): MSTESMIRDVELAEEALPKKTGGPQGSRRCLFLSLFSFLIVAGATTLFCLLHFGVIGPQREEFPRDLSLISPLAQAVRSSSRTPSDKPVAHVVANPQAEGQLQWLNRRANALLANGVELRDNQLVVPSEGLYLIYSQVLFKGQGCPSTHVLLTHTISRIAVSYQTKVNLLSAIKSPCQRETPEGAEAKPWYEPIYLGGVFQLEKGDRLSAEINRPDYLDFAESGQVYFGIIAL

Take “APC-labeled unrelated antibody (anti-CD19) coated on beads”: the #Events (CHO cells bound to anti-CD19 beads, gate P4) stood at 6 events; the #Events (unbound beads, gate P2) was determined as 558 events; the % Parent (gate P4) stood at 0.1%; the % Total (gate P4) was 0.1%.
